Consider 2 molecules from patent US20260098102A1 (NATIONAL UNIVERSITY CORPORATION KOBE UNIVERSITY, published 2026).

In test [1] the target is T1, human SIRPA_V4 (human, UniProt P78324 31-504).
T1 construct: FLAG-tagged (pFLAG V5-DEST), on 293α cells; also called human SIRPA Variant 4
T1 chain: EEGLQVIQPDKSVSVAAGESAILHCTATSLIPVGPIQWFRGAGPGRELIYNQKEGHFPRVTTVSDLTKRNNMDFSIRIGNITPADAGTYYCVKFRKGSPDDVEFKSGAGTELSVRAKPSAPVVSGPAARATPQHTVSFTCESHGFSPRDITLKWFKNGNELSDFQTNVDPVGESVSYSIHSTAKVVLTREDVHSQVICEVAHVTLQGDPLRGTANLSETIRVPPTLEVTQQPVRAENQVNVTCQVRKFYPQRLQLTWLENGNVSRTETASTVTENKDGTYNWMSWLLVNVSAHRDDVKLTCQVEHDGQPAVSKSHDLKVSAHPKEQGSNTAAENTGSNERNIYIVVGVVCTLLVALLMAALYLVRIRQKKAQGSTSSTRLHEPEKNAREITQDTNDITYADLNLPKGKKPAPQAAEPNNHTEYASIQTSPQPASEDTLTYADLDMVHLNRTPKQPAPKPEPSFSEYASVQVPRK
As to the kind of experiment: cell-based ELISA, transfected 293α cells, 10,000 ng/mL, normalized to FLAG. Here is the method: (§1) After the culture supernatant of 293α cells into which the vector expressing 10 different variant proteins prepared in Example 2)-1-1 was introduced was removed, 50 μL per well of a purified rat anti-human SIRPA antibody diluted with 5% FBS-containing PBS to a final concentration of 10,000 ng/ml was added to each of pFLAG V5-DEST-SIRPA_V1-V10 and pFLAG V5-DEST-introduced 293α cells, and the mixture was allowed to stand at 4° C. for one hour. Further, 50 μL per well of an anti-FLAG M2 antibody (SIGMA) diluted with 5% FBS-containing PBS to a final concentration of 10,000 ng/mL was added to a well for detecting expression of each SIRPA variant, and the mixture was allowed to stand at 4° C. for one hour. Thereafter, binding to 10 different human SIRPA variants was evaluated in the same manner as in the evaluation of the binding activity of the human SIRPA described in 1)-6-2. Binding of the rat anti-human SIRPA antibodies to each variant was standardized by expression of the FLAG tag.
(In an ELISA, binding on a coated surface is turned into a signal by an enzyme label.)

Test [2] addresses T2, human SIRPA_V8 (human, UniProt P78324 31-504).
T2 construct: FLAG-tagged (pFLAG V5-DEST), on 293α cells; also called human SIRPA Variant 8
Described as above. How it is done:
as §1

Test [3] addresses T3, mouse SIRPA_C57BL/6 (mouse (C57BL/6), UniProt P97797 32-513).
T3 construct: FLAG-tagged (pFLAG V5-DEST), on 293α cells
T3 sequence: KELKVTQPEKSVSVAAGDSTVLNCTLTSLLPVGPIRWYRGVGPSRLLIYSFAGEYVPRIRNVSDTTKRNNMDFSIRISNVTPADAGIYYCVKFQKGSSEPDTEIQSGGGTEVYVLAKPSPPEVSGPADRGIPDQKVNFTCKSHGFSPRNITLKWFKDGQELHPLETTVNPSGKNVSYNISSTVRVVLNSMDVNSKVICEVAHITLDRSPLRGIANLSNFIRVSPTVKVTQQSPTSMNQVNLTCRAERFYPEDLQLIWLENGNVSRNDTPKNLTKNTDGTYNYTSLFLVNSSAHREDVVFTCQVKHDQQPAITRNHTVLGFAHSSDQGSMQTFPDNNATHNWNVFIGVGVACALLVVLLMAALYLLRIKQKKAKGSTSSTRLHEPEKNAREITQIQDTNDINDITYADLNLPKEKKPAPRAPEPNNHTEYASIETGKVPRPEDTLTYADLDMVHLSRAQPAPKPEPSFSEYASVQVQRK
Nature of the test: cell-based ELISA, transfected 293α cells. Here is the method: (§2) After the culture supernatant of 293α cells into which the pFLAG V5-DEST-monkey SIRPA or pFLAG V5-DEST-mouse SIRPA expression vector was introduced and the pFLAG V5-DEST-introduced 293α cells prepared in Example 1)-5-2 was removed, binding to monkey or mouse SIRPA was evaluated in the same manner as for the binding activity of human SIRPA.

Test [4] deals with T4, mouse SIRPA_NOD (mouse (NOD), UniProt P97797 32-513).
T4 construct: FLAG-tagged (pFLAG V5-DEST), on 293α cells; also called NOD SCID
T4 chain: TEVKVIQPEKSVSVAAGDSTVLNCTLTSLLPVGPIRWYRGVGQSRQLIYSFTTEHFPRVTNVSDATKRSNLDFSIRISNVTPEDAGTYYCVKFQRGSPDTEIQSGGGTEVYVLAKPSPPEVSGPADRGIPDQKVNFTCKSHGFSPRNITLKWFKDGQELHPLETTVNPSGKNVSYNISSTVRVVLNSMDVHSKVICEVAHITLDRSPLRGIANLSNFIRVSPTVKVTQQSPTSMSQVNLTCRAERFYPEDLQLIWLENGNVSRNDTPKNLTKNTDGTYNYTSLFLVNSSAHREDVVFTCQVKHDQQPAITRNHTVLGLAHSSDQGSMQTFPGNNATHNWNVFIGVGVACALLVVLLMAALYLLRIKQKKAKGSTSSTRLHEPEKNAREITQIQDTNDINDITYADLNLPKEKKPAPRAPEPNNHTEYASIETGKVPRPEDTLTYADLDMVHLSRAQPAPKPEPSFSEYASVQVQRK
Nature of the test: cell-based ELISA, transfected 293α cells. How it is done: as §2

Test [5] concerns the target T5, mouse SIRPA_129 (mouse (129), UniProt P97797 32-513).
T5 construct: FLAG-tagged (pFLAG V5-DEST), on 293α cells; also called 129sv
T5 chain: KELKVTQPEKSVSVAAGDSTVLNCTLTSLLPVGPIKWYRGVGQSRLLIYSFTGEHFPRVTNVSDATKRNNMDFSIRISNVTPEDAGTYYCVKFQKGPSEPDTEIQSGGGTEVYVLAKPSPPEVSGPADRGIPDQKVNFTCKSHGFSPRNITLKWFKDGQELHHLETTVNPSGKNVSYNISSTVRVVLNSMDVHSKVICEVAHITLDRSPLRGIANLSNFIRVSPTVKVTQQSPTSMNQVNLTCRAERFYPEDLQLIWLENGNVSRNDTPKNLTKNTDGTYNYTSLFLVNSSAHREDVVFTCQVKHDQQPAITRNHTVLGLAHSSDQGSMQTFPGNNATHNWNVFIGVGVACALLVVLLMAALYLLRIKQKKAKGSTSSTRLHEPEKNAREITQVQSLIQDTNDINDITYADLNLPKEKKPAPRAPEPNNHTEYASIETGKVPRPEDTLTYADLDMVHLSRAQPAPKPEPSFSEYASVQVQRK
As to the kind of experiment: cell-based ELISA, transfected 293α cells. Here is the method: as §2

Test [6] concerns the target T6, mouse SIRPA BALB/c (mouse (BALB/c), UniProt P97797 35-513).
T6 construct: FLAG-tagged (pFLAG V5-DEST), on 293α cells
T6 chain: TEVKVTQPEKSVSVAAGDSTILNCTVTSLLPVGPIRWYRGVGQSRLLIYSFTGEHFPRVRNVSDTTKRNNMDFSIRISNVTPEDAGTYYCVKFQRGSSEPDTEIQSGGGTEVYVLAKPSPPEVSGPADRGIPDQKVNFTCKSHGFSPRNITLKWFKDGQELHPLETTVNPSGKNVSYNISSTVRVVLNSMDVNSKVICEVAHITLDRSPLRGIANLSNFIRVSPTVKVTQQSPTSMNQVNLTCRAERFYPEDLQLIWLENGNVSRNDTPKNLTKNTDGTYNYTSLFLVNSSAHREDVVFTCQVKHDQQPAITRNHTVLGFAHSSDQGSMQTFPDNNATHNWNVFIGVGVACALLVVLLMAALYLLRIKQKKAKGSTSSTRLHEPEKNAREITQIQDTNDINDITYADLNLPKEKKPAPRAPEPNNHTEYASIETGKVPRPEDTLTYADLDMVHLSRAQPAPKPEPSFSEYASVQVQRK
As to the kind of experiment: cell-based ELISA, transfected 293α cells. Here is the method: as §2

B1: rat anti-human SIRPA monoclonal antibody F44 (antibody, V domains shown)
VH: EVQLVESGGGLVQPGRSLKLSCAASGFTFSNYYMAWVRQAPTKGLEWVTYITTGGGSTYFRDSVKGRFTISRDNAESTLYLQMDSLRSEDTATYYCTAANYGGSYFDYWGQGVMVTVSS
VL: DVQMTQSPSNLAASPGESVSINCKASKSISKYLAWYQQKPGKANKLLIYSGSTLQSGTPSRFSGSGSGTDFTLTIRNLEPEDFGLYYCQQHNEYPPTFGAGTKLELK
notes: Rat IgG2a/kappa purified from hybridoma
As for B1, the binding result in test [1] is recorded as “binds”; in test [2], “binds”; in test [3] it was “no binding”; in test [4], “no binding”; in test [5], “no binding”; in test [6], “no binding”.

B2: rat anti-human SIRPA monoclonal antibody F63 (antibody, V domains shown)
VH: QVQLKESGPGLVQPSETLSLTCTVSGFSLASYSLSWVRQPSGKGPEWMGRMYYDGDTAYNSALKSRLSISRDTSKNQVFLKMNSLQTDDTGTYYCTRDRSMFGTDYPHWYFDFWGPGTMVTVSS
VL: QFTLTQPKSVSGALRSTITIPCERSSGDIGDSYVSWYQRHLGRPPINVIYADDQRPSEVSDRFSGSIDSSSNSASLTITNLQMDDEADYFCQSYDSKIDIFGGGTKLTVL
notes: Rat IgG2a/lambda purified from hybridoma
Take B2: the binding result in test [1] is reported as “binds”; in test [2] it was “binds”; in test [3], “no binding”; in test [4], “no binding”; in test [5], “no binding”; in test [6] it was “no binding”.
